Assay results: patent publication US20020037286A1 (published 2002)

Experiments:
Ena/VASP proteins = test: cell-based or functional assay
[1] = molecular target: Arp2/3 complex (endogenous, Jurkat T-cells); test: cell-based or functional assay
[2] = molecular target: T1, zyxin (endogenous, Jurkat T-cells) (human, UniProt Q15942 2-572); test: co-immunoprecipitation from Jurkat T-cell lysate with WASP mAb 67B4, blot probed with zyxin mAb
T1 sequence (looked up): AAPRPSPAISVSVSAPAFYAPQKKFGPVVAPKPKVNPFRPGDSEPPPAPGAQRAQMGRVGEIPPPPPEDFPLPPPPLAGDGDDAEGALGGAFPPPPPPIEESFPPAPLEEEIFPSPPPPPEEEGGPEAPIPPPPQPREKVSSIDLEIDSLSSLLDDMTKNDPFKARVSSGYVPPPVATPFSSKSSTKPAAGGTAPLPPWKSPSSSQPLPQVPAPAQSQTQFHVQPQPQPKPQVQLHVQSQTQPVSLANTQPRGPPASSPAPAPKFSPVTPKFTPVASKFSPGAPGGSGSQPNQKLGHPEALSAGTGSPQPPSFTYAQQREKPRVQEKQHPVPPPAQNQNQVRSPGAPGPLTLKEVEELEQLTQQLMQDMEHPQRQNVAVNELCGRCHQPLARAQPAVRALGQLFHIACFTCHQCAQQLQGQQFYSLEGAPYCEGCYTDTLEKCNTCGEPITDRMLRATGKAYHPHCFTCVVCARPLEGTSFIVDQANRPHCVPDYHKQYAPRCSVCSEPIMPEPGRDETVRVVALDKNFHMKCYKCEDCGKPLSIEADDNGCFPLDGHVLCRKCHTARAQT
Experimental: After quick pelleting, stimulated and control cells were resuspended and incubated in DMEM/HEPES containing 15 λg/ml goat anti mouse IgG antibodies at 37° C. for 2 min. Jurkat NP-40 lysates were prepared at 1×10⁸ cells/ml in ice cold NP-40 lysis buffer (1% (v/v) NP-40, 150 mm NaCl, 10 mM Tris-Cl pH 7.8) supplemented with 60 μg/ml chymostatin, 10 g/ml pepstatin, 5 μg/ml leupeptin, 2 μg/ml aprotinin, 2 mM Pefabloc (Roche Diagnostics), 1 mM Na₃VO₄, and 10 mM NaF. […] Immunoprecipitations were carried out according to standard protocols using 0.2 ml of Jurkat NP-40 lysates derived from 2×10^7 cells.
Immunoprecipitates were resolved by SDS-PAGE. As positive control, Jurkat E6-1 lysates were used.

## GFP-ActA-Repeats F>A
Ena/VASP proteins
  length of the contact zone between Jurkat T-cells and anti CD3-coated beads: 5.16 µm

## myc-tagged ScarWA (from UniProt Q92558 443-559)
[1]
  length of the contact zone between the beads and Jurkat T-cells: 3.16 µm

## myc-tagged ScarW (from UniProt Q92558 443-543)
[1]
  length of the contact zone between the beads and Jurkat T-cells: 5 µm

## GFP-ActA-Repeats
Ena/VASP proteins
  length of the contact zone between Jurkat T-cells and anti CD3-coated beads: 3.84 µm

B1: WASP (endogenous, Jurkat T-cells) (other, human, UniProt P42768 2-502, looked up)
chain: SGGPMGGRPGGRGAPAVQQNIPSTLLQDHENQRLFEMLGRKCLTLATAVVQLYLALPPGAEHWTKEHCGAVCFVKDNPQKSYFIRLYGLQAGRLLWEQELYSQLVYSTPTPFFHTFAGDDCQAGLNFADEDEAQAFRALVQEKIQKRNQRQSGDRRQLPPPPTPANEERRGGLPPLPLHPGGDQGGPPVGPLSLGLATVDIQNPDITSSRYRGLPAPGPSPADKKRSGKKKISKADIGAPSGFKHVSHVGWDPQNGFDVNNLDPDLRSLFSRAGISEAQLTDAETSKLIYDFIEDQGGLEAVRQEMRRQEPLPPPPPPSRGGNQLPRPPIVGGNKGRSGPLPPVPLGIAPPPPTPRGPPPPGRGGPPPPPPPATGRSGPLPPPPPGAGGPPMPPPPPPPPPPPSSGNGPAPPPLPPALVPAGGLAPGGGRGALLDQIRQGIQLNKTPGAPESSALQPPPQSSEGLVGALMHVMQKRSRAIHSSDEGEDQAGDEDEDDEWDD
[2]
  binding result: no binding
